The test addresses recombinant truncated LvAPN1-His (N-terminal region of Litopenaeus vannamei aminopeptidase N1 with the Cry toxin binding region and the active site of the peptidase-M1 domain) (Litopenaeus vannamei). The test is described as follows: ELISA; 20 ug purified truncated rLvAPN1 coated overnight in 0.1 M carbonate/bicarbonate buffer pH 9.6 at 4 C; blocked with 0.5% BSA in TBS pH 8.0; rPirA^vp, rPirB^vp or rGST at 0-10 uM in TBS incubated at 4 C overnight; detected with rabbit anti-PirA^vp or anti-PirB^vp polyclonal antibody and HRP-conjugated secondary antibody, A450; one-site binding model; apparent Kd.

On to “recombinant PirA^vp-His toxin subunit of Vibrio parahaemolyticus (VP_AHPND) (natural protein)”, for which the Kd amounted to 3200 nM.
In the case of “recombinant PirB^vp-GST toxin subunit of Vibrio parahaemolyticus (VP_AHPND) (natural protein)”, the Kd amounted to 500 nM.

The values are drawn from paper PMC8041169.
